B1: CDC25B (parent)
chain: KSPIAPCSLDKRVILIFHCEFSSE

Variants of: B1
Experiment: protein stability index of a GFP-peptide fusion (GPS, HEK-293T) (PSI 1-6); higher = more stable
Details: c terminus: a fixed tail appended
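Note: lentivirally expressed fusions sorted by FACS into six bins by GFP to DsRed ratio, PSI derived from sequencing read proportions per bin multiplied by bin number.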

Row | Variant | protein stability index
1 | KSPIAPCSRDKRVILIFHCEFSSE | 3.58
2 | KSPIAPCSMDKRVILIFHCEFSSE | 2.53
3 | KSPIAPCSFDKRVILIFHCEFSSE | 2.64
4 | KSPIAPCSNDKRVILIFHCEFSSE | 2.78
5 | KSPIAPCSTDKRVILIFHCEFSSE | 2.22
6 | KSPIAPCSADKRVILIFHCEFSSE | 2.62
7 | KSPIAPCSIDKRVILIFHCEFSSE | 4.08
8 | KSPIAPCSYDKRVILIFHCEFSSE | 3.94
9 | KSPIAPCSKDKRVILIFHCEFSSE | 2.39
10 | KSPIAPCSQDKRVILIFHCEFSSE | 2.42
11 | KSPIAPCSVDKRVILIFHCEFSSE | 2.37
12 | KSPIAPCSCDKRVILIFHCEFSSE | 2.46
13 | KSPIAPCSPDKRVILIFHCEFSSE | 3.63
14 | KSPIAPCSLDKRPILIFHCEFSSE | 1.49
15 | KSPIAPCSLDKRKILIFHCEFSSE | 1.32
16 | KSPIAPCSLDKRGILIFHCEFSSE | 1.14
17 | KSPIAPCSLDKRQILIFHCEFSSE | 1.42
18 | KSPIAPCSLDKRLILIFHCEFSSE | 2.5
19 | KSPIAPCSLDKRSILIFHCEFSSE | 3.15
20 | KSPIAPCSLDKRCILIFHCEFSSE | 1.21
21 | KSPIAPCSLDKRNILIFHCEFSSE | 1.61
22 | KSPIAPCSLDKRWILIFHCEFSSE | 4.17
23 | KSPIAPCSLDKRFILIFHCEFSSE | 2.29
24 | KSPIAPCSLDKREILIFHCEFSSE | 1.45

Row | Variant | protein stability index
25 | KSPIAPCSLDKRHILIFHCEFSSE | 1.85
26 | KSPIAPCSLDKRDILIFHCEFSSE | 2.51
27 | KSPIAPCSLDKRRILIFHCEFSSE | 3.12
28 | KSPIAPCSLDKRYILIFHCEFSSE | 2.97
29 | KSPIAPCSLDKRTILIFHCEFSSE | 2.89
30 | KSPIAPCSLDKRAILIFHCEFSSE | 3.2
31 | KSPIAPCSLDKRIILIFHCEFSSE | 3.36
32 | KSPIAPCSLDKRVILIFHIEFSSE | 2.77
33 | KSPIAPCSLDKRVILIFHEEFSSE | 1.85
34 | KSPIAPCSLDKRVILIFHTEFSSE | 3.92
35 | KSPIAPCSLDKRVILIFHREFSSE | 2.96
36 | KSPIAPCSLDKRVILIFHYEFSSE | 2.08
37 | KSPIAPCSLDKRVILIFHPEFSSE | 2.75
38 | KSPIAPCSLDKRVILIFHSEFSSE | 4.17
39 | KSPIAPCSLDKRVILIFHDEFSSE | 2.34
40 | KSPIAPCSLDKRVILIFHWEFSSE | 2.31
41 | KSPIAPCSLDKRVILIFHHEFSSE | 1.89
42 | KSPIAPCSLDKRVILIFHAEFSSE | 3.06
43 | KSPIAPCSLDKRVILIFHKEFSSE | 2.03
44 | KSPIAPCSLDKRVILIFHQEFSSE | 4.16
45 | KSPIAPCSLDKRVILIFHNEFSSE | 1.32
46 | KSPIAPCSLDKRVILTFHCEFSSE | 2.18
47 | KSPIAPCSLDKRVILEFHCEFSSE | 1.07
48 | KSPIAPCSLDKRVILMFHCEFSSE | 2.25

Row | Variant | protein stability index
49 | KSPIAPCSLDKRVILHFHCEFSSE | 1.68
50 | KSPIAPCSLDKRVILAFHCEFSSE | 1.52
51 | KSPIAPCSLDKRVILDFHCEFSSE | 2.92
52 | KSPIAPCSLDKRVILVFHCEFSSE | 1.06
53 | KSPIAPCSLDKRVILYFHCEFSSE | 2.91
54 | KSPIAPCSLDKRVILCFHCEFSSE | 2.93
55 | KSPIAPCSLDKRVILGFHCEFSSE | 1.4
56 | KSPIAPCSLDKRVILWFHCEFSSE | 1.05
57 | KSPIAPCSLDKRVILQFHCEFSSE | 1.52
58 | KSPIAPCSLDKRVILNFHCEFSSE | 2.54
59 | KSPIAPCSLDKRVILSFHCEFSSE | 2.01
60 | KSPIAPCSLDKRVILLFHCEFSSE | 1.38
61 | KSPIAPCSLDKRVILRFHCEFSSE | 2.5
62 | KSPIAPCSLDKRVILKFHCEFSSE | 1.39
63 | KSPIAPCSLDKRVILPFHCEFSSE | 3.02
64 | KSPIAPCSLDKRVILIFHCAFSSE | 1.82
65 | KSPIAPCSLDKRVILIFHCFFSSE | 2.05
66 | KSPIAPCSLDKRVILIFHCCFSSE | 4.34
67 | KSPIAPCSLDKRVILIFHCDFSSE | 2.58
68 | KSPIAPCSLDKRVILIFHCGFSSE | 2.81
69 | KSPIAPCSLWKRVILIFHCEFSSE | 2.94
70 | KSPIAPCSLMKRVILIFHCEFSSE | 2.48
71 | KSPIAPCSLHKRVILIFHCEFSSE | 2.05
72 | KSPIAPCSLIKRVILIFHCEFSSE | 2.12

Row | Variant | protein stability index
73 | KSPIAPCSLPKRVILIFHCEFSSE | 3.83
74 | KSPIAPCSLVKRVILIFHCEFSSE | 2.67
75 | KSPIAPCSLSKRVILIFHCEFSSE | 2.26
76 | KSPIAPCSLQKRVILIFHCEFSSE | 1.71
77 | KSPIAPCSLGKRVILIFHCEFSSE | 2.74
78 | KSPIAPCSLCKRVILIFHCEFSSE | 2.23
79 | KSPIAPCSLYKRVILIFHCEFSSE | 1.66
80 | KSPIAPCSLTKRVILIFHCEFSSE | 3.32
81 | KSPIAPCSLFKRVILIFHCEFSSE | 2.42
82 | KSPIAPCSLAKRVILIFHCEFSSE | 2.95
83 | KSPIAPCSLDKRVILIFFCEFSSE | 3.53
84 | KSPIAPCSLDKRVILIFSCEFSSE | 3.34
85 | KSPIAPCSLDKRVILIFNCEFSSE | 2.26
86 | KSPIAPCSLDKRVILIFGCEFSSE | 2.81
87 | KSPIAPCSLDKRVILIFCCEFSSE | 3.24
88 | KSPIAPCSLDKRVILIFDCEFSSE | 3.1
89 | KSPIAPCSLDKRVILIFACEFSSE | 3.34
90 | KSPIAPCSLDKRVILIFMCEFSSE | 1.88
91 | KSPIAPCSLDKRVILIFYCEFSSE | 2.5
92 | KSPIAPCSLDKRVILIFKCEFSSE | 2.45
93 | KSPIAPCSLDKRVILIFICEFSSE | 1.86
94 | KSPIAPCSLDKRVILIFPCEFSSE | 2.44
